# Patent US20200325187A1 (Genentech, published 2020)
# Where two headings read alike, the source gives them in different places.
# T1: hVEGF-A (8-109) (human, UniProt P15692 214-315)
# T1 sequence (looked up): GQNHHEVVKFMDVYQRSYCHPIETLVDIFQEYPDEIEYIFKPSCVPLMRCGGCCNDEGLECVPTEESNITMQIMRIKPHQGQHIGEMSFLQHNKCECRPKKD
# T2: hVEGF-A Y21A (human, UniProt P15692-4 34-135, Y21A)
# T2 construct: position probably counted on the mature protein
# T2 sequence (looked up): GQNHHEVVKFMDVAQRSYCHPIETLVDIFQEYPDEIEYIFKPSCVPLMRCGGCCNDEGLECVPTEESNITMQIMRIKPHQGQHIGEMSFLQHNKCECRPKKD
# T3: hVEGF-A Q89A (human, UniProt P15692-4 34-135, Q89A)
# T3 construct: position probably counted on the mature protein
# T3 sequence (looked up): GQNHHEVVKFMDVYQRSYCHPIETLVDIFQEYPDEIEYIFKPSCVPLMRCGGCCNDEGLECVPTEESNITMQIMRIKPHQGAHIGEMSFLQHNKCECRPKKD
# T4: hVEGF-A K48A (human, UniProt P15692-4 34-135, K48A)
# T4 construct: position probably counted on the mature protein
# T4 sequence (looked up): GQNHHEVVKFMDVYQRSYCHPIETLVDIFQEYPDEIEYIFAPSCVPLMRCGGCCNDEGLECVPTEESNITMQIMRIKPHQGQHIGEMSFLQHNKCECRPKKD
# T5: rabbit VEGF-A (rabbit, UniProt G1T1L9 1-398)
# T5 sequence: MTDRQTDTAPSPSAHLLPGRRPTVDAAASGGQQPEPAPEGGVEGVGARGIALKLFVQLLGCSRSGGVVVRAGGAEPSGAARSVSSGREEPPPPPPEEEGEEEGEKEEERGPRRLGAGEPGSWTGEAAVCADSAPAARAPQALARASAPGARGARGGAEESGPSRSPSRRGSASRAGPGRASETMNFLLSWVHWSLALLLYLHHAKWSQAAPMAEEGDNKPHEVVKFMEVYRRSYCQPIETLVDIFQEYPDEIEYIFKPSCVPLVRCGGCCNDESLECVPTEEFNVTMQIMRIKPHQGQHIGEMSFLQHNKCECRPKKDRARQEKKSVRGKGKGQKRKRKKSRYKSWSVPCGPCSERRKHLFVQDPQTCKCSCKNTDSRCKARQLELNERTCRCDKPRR
# T6: mouse VEGF-A 164 (mouse, UniProt Q00731-2 27-190)
# T6 construct: also called mouse 164
# T6 sequence (looked up): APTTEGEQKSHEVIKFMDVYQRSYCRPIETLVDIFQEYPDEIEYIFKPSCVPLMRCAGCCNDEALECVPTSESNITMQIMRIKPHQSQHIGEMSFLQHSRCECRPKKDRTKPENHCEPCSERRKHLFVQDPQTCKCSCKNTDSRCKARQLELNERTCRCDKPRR
# T7: rat VEGF-A (rat, UniProt P16612-2 27-190, limits assumed)
# T7 construct: also called rVEGF
# T7 sequence (looked up): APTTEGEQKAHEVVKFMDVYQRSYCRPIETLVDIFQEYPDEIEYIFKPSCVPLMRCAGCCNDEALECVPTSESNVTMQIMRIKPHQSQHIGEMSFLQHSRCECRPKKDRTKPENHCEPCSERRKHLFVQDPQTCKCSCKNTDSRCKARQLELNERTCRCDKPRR
# T8: Flt-4 (human, UniProt P35916 25-776, limits assumed)
# T8 sequence (looked up): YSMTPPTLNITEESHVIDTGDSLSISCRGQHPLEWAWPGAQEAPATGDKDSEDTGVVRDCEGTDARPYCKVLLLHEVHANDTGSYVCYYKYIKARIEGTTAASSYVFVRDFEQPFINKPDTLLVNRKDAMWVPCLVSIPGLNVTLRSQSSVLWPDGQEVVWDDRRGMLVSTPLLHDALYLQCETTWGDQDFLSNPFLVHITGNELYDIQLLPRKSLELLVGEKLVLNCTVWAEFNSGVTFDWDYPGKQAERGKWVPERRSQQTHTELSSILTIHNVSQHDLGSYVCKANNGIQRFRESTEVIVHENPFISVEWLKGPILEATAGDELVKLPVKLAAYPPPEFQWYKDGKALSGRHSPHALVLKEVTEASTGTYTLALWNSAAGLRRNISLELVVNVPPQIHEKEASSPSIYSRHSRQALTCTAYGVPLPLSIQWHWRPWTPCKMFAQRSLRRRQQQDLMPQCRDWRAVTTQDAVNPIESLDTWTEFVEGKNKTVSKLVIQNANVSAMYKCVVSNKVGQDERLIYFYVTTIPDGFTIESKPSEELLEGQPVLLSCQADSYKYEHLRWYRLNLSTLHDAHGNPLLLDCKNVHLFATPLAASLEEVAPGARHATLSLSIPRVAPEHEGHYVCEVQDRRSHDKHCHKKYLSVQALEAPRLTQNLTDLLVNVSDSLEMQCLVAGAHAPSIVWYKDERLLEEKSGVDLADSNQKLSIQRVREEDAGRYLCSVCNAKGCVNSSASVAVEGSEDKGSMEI
# T9: hVEGF-A (8-109) (human), P15692
# T9 chain: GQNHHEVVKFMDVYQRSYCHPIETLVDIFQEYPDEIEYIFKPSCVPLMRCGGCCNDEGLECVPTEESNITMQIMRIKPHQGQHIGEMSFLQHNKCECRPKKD
# How the values were obtained:
# hVEGF-A (8-109) [1] = molecular target: T1, hVEGF-A (8-109); assay: phage competition ELISA (clone on phage; the concentration varied on the axis is that of hVEGF (8-109))
# hVEGF-A [2] = molecular target: T10, hVEGF-A (human, UniProt P15692-4 27-191, limits assumed); assay: cell-based or functional assay
# hVEGF-A [3] = molecular target: T10, hVEGF-A; assay: SPR
# Experimental: (§1) Depending on the format of the assay either a streptavidin sensor (SA) or a dextran-coated (CM5) sensor was utilized as described below.
# (§2) Reaction was then quenched by addition of 10 molar excess of Glycine pH 8.0 and the sample was buffer exchanged into PBS using an Amicon 0.5 mL 3000 MWCO ultra-centrifugal filters (EMD Millipore). The biotinylation state of the protein was verified by LC-MS analysis. Biotinylated VEGF-A was then captured on the surface until a resonance unit (RU) signal of about ˜400. For immobilization of VEGF-A on CM5 sensor, the surface was first activated with a mixture of N-ethyl-N′-(3-dimethylaminopropyl)carbodiimide hydrochloride and N-hydroxysuccinimide (EDC/NHS) according to the supplier instructions. VEGF-A was then diluted into coupling buffer (0.1 M Acetate Buffer, pH 5.0) and injected until the signal reached about ˜400 RU followed by a wash with 1 M ethanolamine pH 8.0 to quench remaining activated sites.
# hVEGF-A [4] = molecular target: T10, hVEGF-A; assay: cell-based or functional assay; remark: listed apart in the source
# hVEGF-A [5] = molecular target: T10, hVEGF-A; assay: phage competition ELISA, soluble CKP
# hVEGF-A Y21A = molecular target: T2, hVEGF-A Y21A; assay: SPR
# Experimental: as §1, §2
# hVEGF-A Q89A = molecular target: T3, hVEGF-A Q89A; assay: SPR
# Experimental: as §1, §2
# hVEGF-A [6] = molecular target: T10, hVEGF-A; assay: SPR; remark: listed apart in the source
# Experimental: as §1, §2
# hVEGF-A K48A = molecular target: T4, hVEGF-A K48A; assay: SPR
# Experimental: as §1, §2
# hVEGF-A [7] = molecular target: T10, hVEGF-A; assay: KDR-VEGF competition ELISA
# hVEGF-A (8-109) [8] = molecular target: T1, hVEGF-A (8-109); assay: spot phage ELISA
# Experimental: After four rounds of binding selection, individual phage clones were picked and inoculated into 450 μl 2YT media containing 50 µg/ml Carbenecillin and M13-KO7 helper phage in 96-well blocks, which were grown at 37° C. overnight. […] The plates were washed and bound phage was detected with anti-M13-HRP followed by TMB substrate. In these assays, phage binding to BSA alone was tested in parallel to assess background binding. […] Positive clones were subjected to DNA sequence analysis.
# rabbit VEGF-A = molecular target: T5, rabbit VEGF-A; assay: SPR
# Experimental: as §1, §2
# mouse VEGF-A 164 = molecular target: T6, mouse VEGF-A 164; assay: SPR
# Experimental: as §1, §2
# human VEGF-A 165 = human VEGF-A 165 (human, UniProt P15692-4 27-191); assay: SPR
# Experimental: as §1, §2
# hVEGF-A (8-109) [9] = molecular target: T1, hVEGF-A (8-109); assay: SPR
# Experimental: as §1, §2
# rat VEGF-A = molecular target: T7, rat VEGF-A; assay: SPR
# Experimental: as §1, §2
# Flt-4 = molecular target: T8, Flt-4; assay: plate ELISA, growth factor coated
# Experimental: Binding specificity of each peptide was established by competition ELISA. […] After blocking with block buffer (PBS with 0.5% BSA and 0.05% TWEEN®20) for 2 hours at room temperature, the receptor-Fc fusions or biotinylated receptors were serially diluted using assay buffer (PBS with 0.5% BSA and 0.05% TWEEN®20) and incubated for 1 hour at room temperature. […] Competition ELISA was conducted in an identical fashion as described above except after blocking, a mixture of serially diluted peptide containing a constant concentration of receptor-Fc fusion or biotinylated receptor (concentration of receptor was set to EC₆₀) was added and incubated for 1 hour. All recombinant human proteins and antibodies were purchased from R &D Systems (Minneapolis, Minn.).
# [10] = molecular target: T9, hVEGF-A (8-109) (human), P15692; assay: spot phage ELISA; details: remark: other sources report otherwise
# Sequence of human VEGF-A 165 (P15692 other isoform, or with tags, fused parts or gaps limits assumed): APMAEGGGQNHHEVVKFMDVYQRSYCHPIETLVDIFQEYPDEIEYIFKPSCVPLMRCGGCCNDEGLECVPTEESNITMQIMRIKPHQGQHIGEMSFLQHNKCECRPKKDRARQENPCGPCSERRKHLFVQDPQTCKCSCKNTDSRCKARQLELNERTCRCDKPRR
binder,measurement,setting,value
"GCNIMLPFWGCKQDSDCLAGCVCQYYQSCG (designed binder, also called EM54) [VEGF_CKP9.54]",IC50 (read off the curve),hVEGF-A (8-109) [1],~4 nM
same,Cellular IC50,hVEGF-A [2],188 nM
same,Kd,hVEGF-A [3],44 nM
same,Cellular IC50,hVEGF-A [4],188 nM
same,IC50,hVEGF-A [5],450 nM
same,Kd,hVEGF-A Y21A,317 nM
same,Kd,hVEGF-A Q89A,1880 nM
same,Kd,hVEGF-A [6],55 nM
same,Kd,hVEGF-A K48A,22 nM
same,IC50,hVEGF-A [7],5.8 nM
same,ELISA,hVEGF-A (8-109) [8],2.1
same,S/N vs BSA,hVEGF-A (8-109) [8],28.4
same,Kd,rabbit VEGF-A,133 nM
same,Kd,mouse VEGF-A 164,250 nM
same,Kd,human VEGF-A 165,190 nM
same,Kd,hVEGF-A (8-109) [9],176 nM
same,kon,hVEGF-A (8-109) [9],1.26e+06 M⁻¹ s⁻¹
same,Kd,rat VEGF-A,176 nM
"VEGF-C (ligand, human, UniProt P49767 103-227, looked up) TEETIKFAAAHYNTEILKSIDNEWRKTQCMPREVCIDVGKEFGVATNTFFKPPCVSVYRCGGCCNSEGLQCMNTSTSYLSKTLFEITVPLSQGPKPVTISFANHTSCRCMSKLDVYRQVHSIIRR",binding result,Flt-4,binds
GCQRTQPFWGCKQDSDCLAGCVCRWYQSCG (designed binder) [VEGF_CKP9.22],ELISA,[10],1.2
same,S/N vs BSA,[10],17.2
